The results in this text go back to paper PMC9408933, “Discovery of the Key Mutation Site Influencing the Thermostability of Thermomyces lanuginosus Lipase by Rosetta Design Programs” (International Journal of Molecular Sciences, 2022).

Broadly, the Km is the concentration of substrate that gives half-maximal velocity. Usually Vmax stands for the top rate of the reaction or transport when substrate is in excess. The kcat is the number of substrate molecules converted per active site and unit of time at saturation. In general, kcat/Km refers to the turnover number divided by the Michaelis constant.

The data set has as its system T1, CCCCCCCCCCCCCCCC(=O)Oc1ccc([N+](=O)[O-])cc1.
T1 construct: N-terminal His-tag, secreted from Pichia pastoris GS115 (pPIC9K), Ni-NTA purified
Description: p-nitrophenol release, Michaelis-Menten fit. The data set is classed as biochemical, Thermomyces lanuginosus. Particulars: 37 °C, pH 9.0, 100 mM Tris-HCl, pNPP 0.08-10.00 mM, apparent Km. An excerpt: p-nitrophenol release, Michaelis-Menten fit on TLL (Thermomyces lanuginosus lipase)
Turning to “TLL (Thermomyces lanuginosus lipase) (Thermomyces lanuginosus; R231A)”, the Km came to 230 ± 30 µM, the Vmax is 384 µmol/min/mg, the kcat came to 1220 ± 43 s⁻¹ and the kcat/Km came out at 5.31e+06 ± 187000 M⁻¹ s⁻¹.
For the substance “TLL (Thermomyces lanuginosus lipase) (Thermomyces lanuginosus; R231H)”, the Km came to 180 ± 20 µM, the Vmax amounted to 330 µmol/min/mg, the kcat was determined as 790 ± 22.7 s⁻¹ and the kcat/Km came out at 4.39e+06 ± 126000 M⁻¹ s⁻¹.
As to “TLL (Thermomyces lanuginosus lipase) (Thermomyces lanuginosus; R231I)”, the Km stood at 180 ± 20 µM, the Vmax is 303 µmol/min/mg, the kcat worked out at 767 ± 22.8 s⁻¹ and the kcat/Km was 4.26e+06 ± 127000 M⁻¹ s⁻¹.
Take “TLL (Thermomyces lanuginosus lipase) (Thermomyces lanuginosus; R231K)”: the Km is 170 ± 20 µM, the Vmax turned out to be 345 µmol/min/mg, the kcat came to 1100 ± 14 s⁻¹ and the kcat/Km was 6.5e+06 ± 82500 M⁻¹ s⁻¹.
“TLL (Thermomyces lanuginosus lipase) (Thermomyces lanuginosus; R231M)”: the Km is 190 ± 30 µM, the Vmax is 319 µmol/min/mg, the kcat came to 765 ± 17.6 s⁻¹ and the kcat/Km is 4.02e+06 ± 92400 M⁻¹ s⁻¹.
The matching figures for “TLL (Thermomyces lanuginosus lipase) (Thermomyces lanuginosus; R231P)”: 160 ± 20 µM, 339 µmol/min/mg, 1387 ± 12.8 s⁻¹ and 8.669e+06 ± 80300 M⁻¹ s⁻¹.
In the case of “TLL (Thermomyces lanuginosus lipase) (Thermomyces lanuginosus; R231Q)”, the Km was 230 ± 30 µM, the Vmax came to 354 µmol/min/mg, the kcat worked out at 788 ± 7.98 s⁻¹ and the kcat/Km was 3.42e+06 ± 34700 M⁻¹ s⁻¹.
As for “TLL (Thermomyces lanuginosus lipase) (Thermomyces lanuginosus; R231E)”, the Km came to 140 ± 20 µM, the Vmax turned out to be 301 µmol/min/mg, the kcat was found to be 1230 ± 27.6 s⁻¹ and the kcat/Km amounted to 8.79e+06 ± 197000 M⁻¹ s⁻¹.
On to “TLL (Thermomyces lanuginosus lipase) (Thermomyces lanuginosus; R231V)”, for which the Km worked out at 140 ± 20 µM, the Vmax was found to be 260 µmol/min/mg, the kcat was 713 ± 8.11 s⁻¹ and the kcat/Km is 5.09e+06 ± 57900 M⁻¹ s⁻¹.
Turning to “TLL (Thermomyces lanuginosus lipase) (Thermomyces lanuginosus; R231T)”, the Km came to 190 ± 30 µM, the Vmax turned out to be 344 µmol/min/mg, the kcat worked out at 1090 ± 27.6 s⁻¹ and the kcat/Km amounted to 5.75e+06 ± 146000 M⁻¹ s⁻¹.
